{"source": "the supplement of paper PMC10724198", "note": "± gives the standard deviation of the averaged measurements.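 Also: PSI is a weighted mean of sequencing reads over stability bins, variants kept only with over 10 reads, mCherry proximal and sfGFP distal, peptide attached via GGGS linker.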"}
{"system": "Saccharomyces cerevisiae", "assay": "protein stability index of tFT-peptide fusion (C-terminal peptide) (PSI (0-1 scale)); higher = more stable (slower turnover)", "conditions": "genetic background: wild type; temperature: 30 C"}
{"sequence": "RVWERGRGGDGC", "protein stability index": "0.679 ± 0.017"}
{"sequence": "RVWIWHPPTVRD", "protein stability index": "0.625 ± 0.016"}
{"sequence": "RWATLSREFYQI", "protein stability index": "0.526 ± 0.023"}
{"sequence": "RWFILCRSLPTG", "protein stability index": "0.613 ± 0.071"}
{"sequence": "RWGGGGSVSFWW", "protein stability index": "0.712 ± 0.053"}
{"sequence": "RWGGRTASVPCG", "protein stability index": "0.754 ± 0.015"}
{"sequence": "RWGGSSPGRSFA", "protein stability index": "0.766 ± 0.0091"}
{"sequence": "RWRFSARSRLSR", "protein stability index": "0.642 ± 0.013"}
{"sequence": "RWSVSLAVTVLL", "protein stability index": "0.503 ± 0.011"}
{"sequence": "RYAEVGSLVSFL", "protein stability index": "0.714 ± 0.0087"}
{"sequence": "RYEQRKNRRQKL", "protein stability index": "0.799 ± 0.017"}
{"sequence": "RYGDGIELVIGS", "protein stability index": "0.657 ± 0.011"}
{"sequence": "RYHQNTKKTSDI", "protein stability index": "0.7119 ± 0.0016"}
{"sequence": "RYLLCSSVESAV", "protein stability index": "0.639 ± 0.028"}
{"sequence": "RYLLPYQRRLFL", "protein stability index": "0.745 ± 0.26"}
{"sequence": "RYNRVVCTEFHL", "protein stability index": "0.668 ± 0.01"}
{"sequence": "RYRSQNNKKLEE", "protein stability index": "0.658 ± 0.024"}
{"sequence": "SADILGLPRYLT", "protein stability index": "0.656 ± 0.023"}
{"sequence": "SAFLPPLSPFSP", "protein stability index": "0.753 ± 0.037"}
{"sequence": "SAFPSRVIGGGV", "protein stability index": "0.661 ± 0.01"}
{"sequence": "SAGDLFVFEYLG", "protein stability index": "0.6759 ± 0.0024"}
{"sequence": "SALRWPRPVLRV", "protein stability index": "0.619 ± 0.017"}
{"sequence": "SAPCSFCPPPPG", "protein stability index": "0.667 ± 0.026"}
{"sequence": "SAPLASRLCLFA", "protein stability index": "0.644 ± 0.0065"}
{"sequence": "SAPSPPPPLAPP", "protein stability index": "0.679 ± 0.041"}
{"sequence": "SAQSAGRQRLQK", "protein stability index": "0.695 ± 0.014"}
{"sequence": "SARDQGISCAEC", "protein stability index": "0.674 ± 0.04"}
{"sequence": "SASPEGTQRSPW", "protein stability index": "0.761 ± 0.14"}
{"sequence": "SASPPLAERRGQ", "protein stability index": "0.655 ± 0.043"}
{"sequence": "SASPVAGWLGGP", "protein stability index": "0.677 ± 0.044"}
{"sequence": "SATRLGLGLCWV", "protein stability index": "0.6383 ± 0.0039"}
{"sequence": "SAVRHPRPGRPG", "protein stability index": "0.6938 ± 0.0053"}
{"sequence": "SCCTITVPERPR", "protein stability index": "0.653 ± 0.045"}
{"sequence": "SCIAVRDPWGLV", "protein stability index": "0.683 ± 0.018"}
{"sequence": "SCLFGIFRWWVG", "protein stability index": "0.568 ± 0.025"}
{"sequence": "SCLFRVFMFHFS", "protein stability index": "0.553 ± 0.04"}
{"sequence": "SCLMSFAFFASL", "protein stability index": "0.619 ± 0.016"}
{"sequence": "SCLRCSCLTEVL", "protein stability index": "0.614 ± 0.021"}
{"sequence": "SCPHPAPPPPPP", "protein stability index": "0.677 ± 0.023"}
{"sequence": "SCPPSFIPVLSP", "protein stability index": "0.667 ± 0.035"}
{"sequence": "SCPSRLFLSFRG", "protein stability index": "0.683 ± 0.034"}
{"sequence": "SCRGKTRPASGR", "protein stability index": "0.64 ± 0.027"}
{"sequence": "SCSLPCPRLPSD", "protein stability index": "0.719 ± 0.15"}
{"sequence": "SCSVGRRIGLGQ", "protein stability index": "0.688 ± 0.061"}
{"sequence": "SCVFPSSCFVLI", "protein stability index": "0.607 ± 0.019"}
{"sequence": "SCVGCLYMYWSL", "protein stability index": "0.6102 ± 0.0049"}
{"sequence": "SCVLSYVASYAQ", "protein stability index": "0.66 ± 0.018"}
{"sequence": "SCVSCACPVYWR", "protein stability index": "0.662 ± 0.065"}
{"sequence": "SDKKGQKLKESQ", "protein stability index": "0.693 ± 0.044"}
{"sequence": "SDKNNRFGRVRV", "protein stability index": "0.674 ± 0.072"}
{"sequence": "SDLDFSRLHGSA", "protein stability index": "0.698 ± 0.056"}
{"sequence": "SDMTHRSCTLLC", "protein stability index": "0.633 ± 0.028"}
{"sequence": "SDVAGRCFFVVI", "protein stability index": "0.589 ± 0.033"}
{"sequence": "SDVLSFYGGVEC", "protein stability index": "0.742 ± 0.026"}
{"sequence": "SEALRGVQFLSC", "protein stability index": "0.684 ± 0.054"}
{"sequence": "SECFARSSSPRA", "protein stability index": "0.7129 ± 0.0041"}
{"sequence": "SEFDSVSRIVYY", "protein stability index": "0.705 ± 0.048"}
{"sequence": "SEGSLIPGSHIA", "protein stability index": "0.733 ± 0.066"}
{"sequence": "SERKAKAEVAEA", "protein stability index": "0.692 ± 0.064"}
{"sequence": "SFARMTAIPGLR", "protein stability index": "0.661 ± 0.029"}
{"sequence": "SFFCSKCPLLCP", "protein stability index": "0.533 ± 0.016"}
{"sequence": "SFFLALSIRLPN", "protein stability index": "0.609 ± 0.0042"}
{"sequence": "SFFPPFHLLFSY", "protein stability index": "0.532 ± 0.025"}
{"sequence": "SFFTLDRHPSYD", "protein stability index": "0.715 ± 0.023"}
{"sequence": "SFGLGGSFFWVG", "protein stability index": "0.7 ± 0.035"}
{"sequence": "SFGLSAGGDDRW", "protein stability index": "0.74 ± 0.016"}
{"sequence": "SFGTLPLNSTAS", "protein stability index": "0.644 ± 0.029"}
{"sequence": "SFGVDPDNCVGF", "protein stability index": "0.607 ± 0.061"}
{"sequence": "SFNDVPPPEGIK", "protein stability index": "0.67 ± 0.038"}
{"sequence": "SFPAPPSPPPLP", "protein stability index": "0.702 ± 0.081"}
{"sequence": "SFRCLGFTSSRV", "protein stability index": "0.681 ± 0.05"}
{"sequence": "SFRFCSNRFTRL", "protein stability index": "0.699 ± 0.056"}
{"sequence": "SFRLLCPPPPLP", "protein stability index": "0.6805 ± 0.0046"}
